Experimental data published in the supplement of paper PMC9112550, “Optimization of the antimicrobial peptide Bac7 by deep mutational scanning” (BMC Biology, 2022).

What follows are sequences tested on Escherichia coli TOP10 (assay: shrunken log2 fold change of peptide-encoding DNA abundance (4.5 h post-induction vs induction); higher = less antimicrobial activity (less host growth inhibition)). Settings: time post-induction: 4.5 h; library: site-saturation at positions 5, 18, 19, 20.
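Further: peptides expressed intracellularly from a pBAD plasmid library in pooled LB shake-flask culture, induced with 0.3% L-arabinose, DNA abundance read by NGS, three biological replicates, DESeq2 with apeglm shrinkage.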

Compared with RRIRCRPPRLPRPRPRPYCTPRP, RRIRFRPPRLPRPRPRPMWAPRP is higher in “shrunken log2 fold change” value: -0.503 for the first, 0.0936 for the second.

Going from RRIRCRPPRLPRPRPRPWLQPRP to RRIRHRPPRLPRPRPRPVEPPRP, the “shrunken log2 fold change” value rises from -0.199 to 0.109.

Going from RRIRDRPPRLPRPRPRPPPKPRP to RRIRWRPPRLPRPRPRPMKGPRP, the “shrunken log2 fold change” value falls from 1.09 to -0.363.

Compared with RRIRLRPPRLPRPRPRPHSFPRP, RRIRGRPPRLPRPRPRPEVLPRP is higher in “shrunken log2 fold change” value: 0.0434 for the first, 1.83 for the second.

Going from RRIRKRPPRLPRPRPRPFFFPRP to RRIRVRPPRLPRPRPRPIWPPRP, the “shrunken log2 fold change” value falls from 0.779 to -0.0228.

RRIRSRPPRLPRPRPRPEYWPRP and RRIRFRPPRLPRPRPRPPMHPRP are within 0.2 log units of each other in “shrunken log2 fold change” value: 0.191 for the first, 0.162 for the second.

First: RRIRGRPPRLPRPRPRPEMHPRP
Second: RRIRIRPPRLPRPRPRPKGKPRP
The “shrunken log2 fold change” value of the first is higher: 0.242 for the first, -0.162 for the second.

RRIRNRPPRLPRPRPRPGNPPRP and RRIRVRPPRLPRPRPRPFFHPRP are within 0.2 log units of each other in “shrunken log2 fold change” value: 0.0273 for the first, 0.145 for the second.

RRIRTRPPRLPRPRPRPMTDPRP and RRIRSRPPRLPRPRPRPTCDPRP are within 0.2 log units of each other in “shrunken log2 fold change” value: 0.0245 for the first, 0.109 for the second.

Going from RRIRNRPPRLPRPRPRPNFYPRP to RRIRTRPPRLPRPRPRPMWEPRP, the “shrunken log2 fold change” value rises from -0.225 to -0.0158.

First: RRIRTRPPRLPRPRPRPRLCPRP
Second: RRIRDRPPRLPRPRPRPTSSPRP
The “shrunken log2 fold change” value of the first is higher: 0.317 for the first, 0.058 for the second.

Compared with RRIRLRPPRLPRPRPRPFFPPRP, RRIRYRPPRLPRPRPRPQRNPRP is lower in “shrunken log2 fold change” value: -0.225 for the first, -0.758 for the second.

First: RRIRWRPPRLPRPRPRPTANPRP
Second: RRIRCRPPRLPRPRPRPIDAPRP
The “shrunken log2 fold change” value of the first is higher: 0.399 for the first, -0.268 for the second.

Going from RRIRPRPPRLPRPRPRPNSAPRP to RRIRRRPPRLPRPRPRPARRPRP, the “shrunken log2 fold change” value rises from 0.204 to 0.546.

Going from RRIRVRPPRLPRPRPRPYQIPRP to RRIRSRPPRLPRPRPRPIPAPRP, the “shrunken log2 fold change” value falls from 0.043 to -0.286.

RRIRLRPPRLPRPRPRPDMNPRP and RRIRFRPPRLPRPRPRPIKGPRP are within 0.2 log units of each other in “shrunken log2 fold change” value: -0.155 for the first, -0.248 for the second.

First: RRIRTRPPRLPRPRPRPRDPPRP
Second: RRIRVRPPRLPRPRPRPELWPRP
The “shrunken log2 fold change” value of the first is lower: 0.047 for the first, 0.459 for the second.

Going from RRIRYRPPRLPRPRPRPATMPRP to RRIRPRPPRLPRPRPRPVQQPRP, the “shrunken log2 fold change” value rises from -0.69 to 0.378.

First: RRIRLRPPRLPRPRPRPWLVPRP
Second: RRIRRRPPRLPRPRPRPDGQPRP
The “shrunken log2 fold change” value of the first is lower: -0.0391 for the first, 0.298 for the second.

RRIRERPPRLPRPRPRPRLLPRP and RRIRIRPPRLPRPRPRPFRYPRP are within 0.2 log units of each other in “shrunken log2 fold change” value: -0.335 for the first, -0.42 for the second.

RRIRMRPPRLPRPRPRPPVVPRP and RRIRKRPPRLPRPRPRPGSGPRP are within 0.2 log units of each other in “shrunken log2 fold change” value: 0.753 for the first, 0.708 for the second.

RRIRSRPPRLPRPRPRPTHIPRP and RRIRFRPPRLPRPRPRPKLEPRP are within 0.2 log units of each other in “shrunken log2 fold change” value: -0.165 for the first, -0.0492 for the second.

Compared with RRIRCRPPRLPRPRPRPHQKPRP, RRIRHRPPRLPRPRPRPAAAPRP is higher in “shrunken log2 fold change” value: 0.00571 for the first, 0.443 for the second.

First: RRIRDRPPRLPRPRPRPEPFPRP
Second: RRIRRRPPRLPRPRPRPVQFPRP
The “shrunken log2 fold change” value of the first is lower: -0.137 for the first, 0.0855 for the second.

RRIRNRPPRLPRPRPRPPKIPRP and RRIRPRPPRLPRPRPRPMTQPRP are within 0.2 log units of each other in “shrunken log2 fold change” value: 0.0999 for the first, 0.272 for the second.

RRIRKRPPRLPRPRPRPACHPRP and RRIRGRPPRLPRPRPRPMKHPRP are within 0.2 log units of each other in “shrunken log2 fold change” value: 0.211 for the first, 0.0417 for the second.

Going from RRIRVRPPRLPRPRPRPQGVPRP to RRIRIRPPRLPRPRPRPLRKPRP, the “shrunken log2 fold change” value rises from -0.275 to 0.00781.

RRIRMRPPRLPRPRPRPYAWPRP and RRIRFRPPRLPRPRPRPVLCPRP are within 0.2 log units of each other in “shrunken log2 fold change” value: -0.107 for the first, -0.221 for the second.

First: RRIRNRPPRLPRPRPRPNSRPRP
Second: RRIRFRPPRLPRPRPRPRSCPRP
The “shrunken log2 fold change” value of the first is lower: -0.266 for the first, 0.155 for the second.

RRIRKRPPRLPRPRPRPQERPRP and RRIRYRPPRLPRPRPRPNCQPRP are within 0.2 log units of each other in “shrunken log2 fold change” value: -0.0146 for the first, -0.0282 for the second.

RRIRFRPPRLPRPRPRPHAVPRP and RRIRLRPPRLPRPRPRPSAKPRP are within 0.2 log units of each other in “shrunken log2 fold change” value: -0.0464 for the first, -0.0639 for the second.

Going from RRIRMRPPRLPRPRPRPCANPRP to RRIRNRPPRLPRPRPRPFTIPRP, the “shrunken log2 fold change” value falls from -0.0263 to -0.28.

First: RRIRNRPPRLPRPRPRPKWTPRP
Second: RRIRHRPPRLPRPRPRPRGGPRP
The “shrunken log2 fold change” value of the first is lower: -0.0342 for the first, 0.504 for the second.

Going from RRIRSRPPRLPRPRPRPIWCPRP to RRIRHRPPRLPRPRPRPDPTPRP, the “shrunken log2 fold change” value rises from -0.288 to -0.0262.

Going from RRIRCRPPRLPRPRPRPKYEPRP to RRIRTRPPRLPRPRPRPVNIPRP, the “shrunken log2 fold change” value rises from -0.403 to -0.136.

Compared with RRIRVRPPRLPRPRPRPWRSPRP, RRIRTRPPRLPRPRPRPKHSPRP is lower in “shrunken log2 fold change” value: -0.0506 for the first, -0.416 for the second.

Going from RRIRGRPPRLPRPRPRPETHPRP to RRIRNRPPRLPRPRPRPIIKPRP, the “shrunken log2 fold change” value falls from 2.22 to -0.463.

RRIRHRPPRLPRPRPRPGHEPRP and RRIRYRPPRLPRPRPRPKYFPRP are within 0.2 log units of each other in “shrunken log2 fold change” value: -0.133 for the first, -0.314 for the second.

RRIRYRPPRLPRPRPRPNMCPRP and RRIRNRPPRLPRPRPRPRLIPRP are within 0.2 log units of each other in “shrunken log2 fold change” value: 0.00841 for the first, 0.0319 for the second.

RRIRCRPPRLPRPRPRPKDPPRP and RRIRLRPPRLPRPRPRPSSEPRP are within 0.2 log units of each other in “shrunken log2 fold change” value: 0.148 for the first, 0.0265 for the second.

First: RRIRNRPPRLPRPRPRPRIMPRP
Second: RRIRRRPPRLPRPRPRPHDEPRP
The “shrunken log2 fold change” value of the first is lower: -0.337 for the first, 0.18 for the second.

Compared with RRIRRRPPRLPRPRPRPLLLPRP, RRIRCRPPRLPRPRPRPTVLPRP is lower in “shrunken log2 fold change” value: 0.0522 for the first, -0.174 for the second.

RRIRCRPPRLPRPRPRPGSWPRP and RRIRCRPPRLPRPRPRPRVAPRP are within 0.2 log units of each other in “shrunken log2 fold change” value: 0.439 for the first, 0.293 for the second.

First: RRIRYRPPRLPRPRPRPNSVPRP
Second: RRIRKRPPRLPRPRPRPMHAPRP
The “shrunken log2 fold change” value of the first is lower: -0.257 for the first, 0.00395 for the second.

Compared with RRIRIRPPRLPRPRPRPLAEPRP, RRIRLRPPRLPRPRPRPTLHPRP is higher in “shrunken log2 fold change” value: -0.129 for the first, 0.18 for the second.

RRIRMRPPRLPRPRPRPAIHPRP and RRIRVRPPRLPRPRPRPCVAPRP are within 0.2 log units of each other in “shrunken log2 fold change” value: 0.156 for the first, 0.159 for the second.

First: RRIRVRPPRLPRPRPRPNMWPRP
Second: RRIRYRPPRLPRPRPRPPSGPRP
The “shrunken log2 fold change” value of the first is lower: -0.327 for the first, 0.0974 for the second.

RRIRIRPPRLPRPRPRPWWTPRP and RRIRHRPPRLPRPRPRPGETPRP are within 0.2 log units of each other in “shrunken log2 fold change” value: -0.0807 for the first, -0.00149 for the second.

RRIRSRPPRLPRPRPRPCEGPRP and RRIRRRPPRLPRPRPRPFIEPRP are within 0.2 log units of each other in “shrunken log2 fold change” value: -0.00992 for the first, 0.0206 for the second.

RRIRDRPPRLPRPRPRPCFLPRP and RRIRQRPPRLPRPRPRPDYDPRP are within 0.2 log units of each other in “shrunken log2 fold change” value: -0.106 for the first, 0.003 for the second.

First: RRIRCRPPRLPRPRPRPFCQPRP
Second: RRIRTRPPRLPRPRPRPISDPRP
The “shrunken log2 fold change” value of the first is lower: -0.353 for the first, -0.0355 for the second.

Going from RRIRYRPPRLPRPRPRPMHYPRP to RRIRIRPPRLPRPRPRPHHNPRP, the “shrunken log2 fold change” value rises from -1.03 to -0.0464.

First: RRIRNRPPRLPRPRPRPLWCPRP
Second: RRIRARPPRLPRPRPRPAAEPRP
The “shrunken log2 fold change” value of the first is lower: -0.0608 for the first, 1.6 for the second.

Compared with RRIRPRPPRLPRPRPRPLAWPRP, RRIRNRPPRLPRPRPRPQLPPRP is lower in “shrunken log2 fold change” value: 0.439 for the first, -0.352 for the second.

First: RRIRRRPPRLPRPRPRPCRPPRP
Second: RRIRPRPPRLPRPRPRPDSTPRP
The “shrunken log2 fold change” value of the first is higher: 0.0965 for the first, -0.679 for the second.

First: RRIRCRPPRLPRPRPRPEMAPRP
Second: RRIRCRPPRLPRPRPRPDKYPRP
The “shrunken log2 fold change” value of the first is higher: 0.532 for the first, -0.717 for the second.

Going from RRIRLRPPRLPRPRPRPDMEPRP to RRIRFRPPRLPRPRPRPNRQPRP, the “shrunken log2 fold change” value falls from 0.0384 to -0.564.

First: RRIRWRPPRLPRPRPRPHPTPRP
Second: RRIRNRPPRLPRPRPRPIYMPRP
The “shrunken log2 fold change” value of the first is higher: 0.115 for the first, -0.473 for the second.

Going from RRIRTRPPRLPRPRPRPQFNPRP to RRIRRRPPRLPRPRPRPCQKPRP, the “shrunken log2 fold change” value rises from -0.226 to 0.0185.

Going from RRIRPRPPRLPRPRPRPQEVPRP to RRIRMRPPRLPRPRPRPSYFPRP, the “shrunken log2 fold change” value falls from 0.0706 to -0.293.

RRIRHRPPRLPRPRPRPTWDPRP and RRIRTRPPRLPRPRPRPFLQPRP are within 0.2 log units of each other in “shrunken log2 fold change” value: 0.0552 for the first, 0.0237 for the second.

RRIRARPPRLPRPRPRPQNVPRP and RRIRHRPPRLPRPRPRPWQHPRP are within 0.2 log units of each other in “shrunken log2 fold change” value: -0.035 for the first, -0.0597 for the second.

With RRIRFRPPRLPRPRPRPIGVPRP the “shrunken log2 fold change” value was -0.0194.
